Assay results published in patent US12448422B2, “Transcription factor NCgl0581 mutant and use thereof in L-serine detection” (JITRI FUTURE FOOD TECHNOLOGY INSTITUTE CO., LTD., priority 2023, dated 2025).

Tested on: L-serine
Assay: L-serine biosensor dose response by exogenous addition of L-serine (eyfp fluorescence intensity/OD600)
Format: cell-based, E. coli JM109
Conditions: for detection limit of the biosensor (L-serine concentration at which the dose response curve shows an obvious upward trend): E. coli JM109, L-serine 0, 25, 50, 75 or 100 mM, 2 h at 37° C., PSerE-eyfp reporter
Procedure: Determination of fluorescence intensity and biomass of bacteria: E. coli in the medium was centrifuged at 4° C. and 4000 g for 5 min to collect the bacteria, washed with a precooled PBS buffer for 2-3 times, resuspended and diluted in a PBS buffer (OD600=0.2-0.8). 200 μL of the diluted bacterial liquid was pipetted and added into a 96-well plate, and the fluorescence intensity and bacterial concentration were determined with a multifunctional microplate reader. During the determination of the fluorescence intensity, the parameters of the microplate reader were set to a yellow fluorescent protein excitation wavelength of 488 nm and an emission wavelength of 590/9 nm; and during the determination of the bacteria concentration, the parameters of the microplate reader were set to λ=600.
One part of the biosensor was used for the expression of the transcription regulator NCgl0581, and the other part was connected with the promoter PSerE regulated by NCgl0581, and then connected with eyfp, which was used to characterize the binding of the biosensor to L-serine so as to regulate the transcription level of eyfp. The nucleotide sequence of the promoter PSerE is shown in SEQ ID NO.5, and the nucleotide sequence of the reporter gene eyfp is shown in SEQ ID No.6.
On the basis of site-directed mutation, E. coli JM109 single colonies containing wild-type NCgl0581 and mutant E136P were selected and inoculated into a 10 mL LB (100 μg/mL Kan) liquid medium, and cultured overnight at 37° C. and 220 rpm. A 950 μL of fresh LB medium was added to each well in a sterilized 24-well plate, and then L-serine with different concentrations was added, with the final concentration controlled to be 0, 25, 50, 75 or 100 mM respectively. Finally, 50 μL of the overnight culture bacteria liquid was added to each well, and the well plate was cultured in a shaker for 2 h at 37° C. and 220 rpm.
E. coli JM109 in the medium was centrifuged for 5 min to collect the bacteria, washed with a PBS buffer for 2-3 times, resuspended and diluted in a PBS buffer (OD600=0.2-0.8). 200 μL of the diluted bacterial liquid was pipetted and added into a 96-well plate, and the bacterial concentration OD600 and fluorescence intensity were determined with a multifunctional microplate reader, with the calculated fluorescence intensity/OD600 as the fluorescence intensity value per unit of bacterial cell.
With the fluorescence intensity/OD600 as the ordinate and the L-serine concentration as the abscissa, the dose response curve of the biosensor to L-serine was drawn by OriginPro 8.5. […] According to the response curve, the detection range of wild-type NCgl0581 and mutant E136P could be obtained respectively.

B1: NCgl0581^E136P: transcription factor NCgl0581 mutant, 136th glutamic acid of SEQ ID NO.1 mutated into proline (SEQ ID NO.3) (protein)
chain: VLNLNRLHILQEFHRLGTITAVAESMNYSRSAISQQMALLEKEIGVKLFEKSGRNLYFTEQGEVLASETHAIMAAVDHARAAVLDSLSEVSGTLKVTSFQSLLFTLAPKAIARLTEKYPHLQVEISQLEVTAALEPLRARRVDVALGEEYPVEVPLVEASIHREVLFEDPMLLVTPASGPYSGLTLPELRDIPIAIDPPDLPAGEWVHRLCRRAGFEPRVTFETSDPMLQAHLVRSGLAVTFSPTLLTPMLESVHIQPLPGNPTRTLYTAVREGRQGHPAIKAFRRALAHVAKESYLEARLVE
- detection limit of the biosensor (L-serine concentration at which the dose response curve shows an obvious upward trend): 25 mM
- change of detection limit of the biosensor versus wild type (biosensor in E. coli, L-serine concentration gradients): reduced by half
- response concentration to L-serine (biosensor in E. coli, exogenous addition of L-serine): 25 mM

B2: wild-type NCgl0581: wild-type LysR-family transcription regulator of Corynebacterium glutamicum (SEQ ID NO.1); L-serine biosensor pDSer is based on it (protein)
chain: VLNLNRLHILQEFHRLGTITAVAESMNYSRSAISQQMALLEKEIGVKLFEKSGRNLYFTEQGEVLASETHAIMAAVDHARAAVLDSLSEVSGTLKVTSFQSLLFTLAPKAIARLTEKYPHLQVEISQLEVTAALEELRARRVDVALGEEYPVEVPLVEASIHREVLFEDPMLLVTPASGPYSGLTLPELRDIPIAIDPPDLPAGEWVHRLCRRAGFEPRVTFETSDPMLQAHLVRSGLAVTFSPTLLTPMLESVHIQPLPGNPTRTLYTAVREGRQGHPAIKAFRRALAHVAKESYLEARLVE
- detection limit of the biosensor (L-serine concentration at which the dose response curve shows an obvious upward trend): 50 mM
